Results on 12 molecules are retold here after patent JP2011219380A (dated 2011).

Assay [1] concerns the target T1, 成熟型ヒトVEGF-D(Hisタッグ付加、二量体、参考例3) (human, UniProt O43915 93-201).
T1 construct: also called human VEGF-D; not shown: His tag
T1 sequence: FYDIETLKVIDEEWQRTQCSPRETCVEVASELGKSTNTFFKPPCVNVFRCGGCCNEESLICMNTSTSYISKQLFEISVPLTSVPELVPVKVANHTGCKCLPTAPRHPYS
Nature of the assay: competition cell ELISA, antibody titrated against 2.5 ug/mL human VEGF-D on human VEGFR-3 CHO cells.

For assay [2], the target named is T2, 成熟型カニクイザルVEGF-D(Hisタッグ付加、二量体、参考例3) (cynomolgus monkey, UniProt O43915 93-201 (human entry)).
T2 construct: also called cynomolgus VEGF-D; not shown: His tag
T2 chain: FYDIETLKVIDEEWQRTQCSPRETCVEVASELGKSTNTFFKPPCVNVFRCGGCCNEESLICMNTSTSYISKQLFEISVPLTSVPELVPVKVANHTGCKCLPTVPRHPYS
Nature of the assay: competition cell ELISA, antibody titrated against 2.5 ug/mL cynomolgus VEGF-D on cynomolgus VEGFR-3 CHO cells. (In general: An ELISA detects its analyte on a solid surface through an enzyme-linked reagent.)

Assay [3] deals with T1, 成熟型ヒトVEGF-D(Hisタッグ付加、二量体、参考例3). Put plainly: competition cell ELISA, inhibition of human VEGF-D binding to human VEGFR-3 CHO cells, against chimeric VE48.

B1: VE29キメラ抗体 (antibody, human IgG1, V domains shown)
VH: DVQLQESGPGLVKPSQTVSLTCTVTGYSITNRYHWWNWIRQVSGNKLEWIGYISYSGDTVSNPSLKSRISITRDTSKNQLFLQLNSVTTEDIATYYCARDGGIYFDYWGQGTTLTVSS
VL: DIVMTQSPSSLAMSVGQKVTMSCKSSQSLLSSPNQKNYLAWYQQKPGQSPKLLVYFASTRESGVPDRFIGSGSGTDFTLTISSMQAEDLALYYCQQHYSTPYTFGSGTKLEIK
notes: also called キメラVE29; chimeric VE29
As for B1, the binding result in assay [1] was “binds”.

B2: VE199キメラ抗体 (antibody, human IgG1, V domains shown)
VH: EVQLQQSGPELVKPGASVKMSCKASGYSFTGYNMHWVKQSHGRSLEWIGYIDPYNGDTYYNQKFRDKATLTVDKSSSTAYMQLNSLTSEDSALYYCIRAGYYAMDYWGQGTSVTVSS
VL: DIVMTQTPLSLPVSLGDQASISCRSSQSLVHINGNTYLHWYLQKPGQSPKLLIYKVSNRFSGVPDRFSGSGSGTDFTLKISRVEAEDLGVYFCSQGTHVPRTFGGGTKLEIN
notes: also called キメラVE199; chimeric VE199
B2: the binding result in assay [1] and in assay [2] was “binds” in each case.

B3: ヒト化VE48抗体(H鎖:VE48HA、L鎖:VE48L6) (antibody, human IgG1, kappa, V domains shown)
VH: QVTLKESGPALVKPTQTLTLTCTFSGFSLSTYGMGVGWIRQPPGKALEWLANIWWNDDKYYNPVLRSRLTISKDTSKNQVVLTMTNMDPVDTATYYCVQVTNPFVFWGQGTLVTVSS
VL: DIVMTQTPLSLPVTPGEPASISCRSSQSLVHINGNTYLHWYLQKPGQSPQLLIYKVSNRFSGVPDRFSGSGSGTDFTLKISRVEAEDVGVYFCSQSTHVPWTFGGGTKVEIKR
notes: also called 48HA/48L6; HA/L6
For B3, the binding result in assay [3] is recorded as “binds”.

B4: ヒト化抗体VE48抗体(48HK/48L6) (antibody, V domains shown)
VH: QVTLKESGPALVKPTQTLTLTCTFSGFSLSTYGMGVGWIRQPPGKALEWLANIWWNDDKYYNPVLRSRLTISKDTSKNQVVLTMTNMDPVDTATYYCVQVTNPFVFWGEGTLVTVSS
VL: DIVMTQTPLSLPVTPGEPASISCRSSQSLVHINGNTYLHWYLQKPGQSPQLLIYKVSNRFSGVPDRFSGSGSGTDFTLKISRVEAEDVGVYFCSQSTHVPWTFGGGTKVEIKR
notes: The light chain is VE48L6; also called VE48HK/VE48L6
With B4, the binding result in assay [3] is “binds”.

B5: ヒト化VE199抗体(H鎖:VE199HA、L鎖:VE199LA) (antibody, human IgG1, kappa, V domains shown)
VH: QVQLVQSGPEVKKPGASVKVSCKASGYTFTGYNMHWVRQAPGQGLEWMGYIDPYNGDTYYNQKFQDRVTLTVDKSTSTAYMELSSLRSEDTAVYYCIRAGYYAMDYWGQGTLVTVSS
VL: DIVMTQTPLSLPVTPGEPASISCRSSQSLVHINGNTYLHWYLQKPGQSPQLLIYKVSNRFSGVPDRFSGSGSGTDFTLKISRVEAEDVGVYFCSQGTHVPRTFGGGTKVEIKR
notes: also called VE199HALA
B5: the binding result in assay [3] is on record as “binds”.

B6: ヒト化抗体VE48抗体(48H17/48L6) (antibody, V domains shown)
VH: QVTLKESGPALVKPTQTLTLTCTFSGFSLSTYGMGVGWIRQPPGKALEWLANIWWEDDKYYNPVLRSRLTISKDTSKNQVVLTMTNMDPVDTATYYCVQVTNPFVFWGEGTLVTVSS
VL: DIVMTQTPLSLPVTPGEPASISCRSSQSLVHINGNTYLHWYLQKPGQSPQLLIYKVSNRFSGVPDRFSGSGSGTDFTLKISRVEAEDVGVYFCSQSTHVPWTFGGGTKVEIKR
notes: The light chain is VE48L6; also called VE48H17/VE48L6
For B6, in assay [3], the binding result is on record as “binds”.

B7: ヒト化抗体VE48抗体(48H18/48L6) (antibody, V domains shown)
VH: QVTLKESGPALVKPTQTLTLTCTFSGFSLSDYGMGVGWIRQPPGKALEWLANIWWEDDKYYNPVLRSRLTISKDTSKNQVVLTMTNMDPVDTATYYCVQVTNPFVFWGEGTLVTVSS
VL: DIVMTQTPLSLPVTPGEPASISCRSSQSLVHINGNTYLHWYLQKPGQSPQLLIYKVSNRFSGVPDRFSGSGSGTDFTLKISRVEAEDVGVYFCSQSTHVPWTFGGGTKVEIKR
notes: The light chain is VE48L6; also called VE48H18/VE48L6
Regarding B7, the binding result in assay [3] was “binds”.

B8: HA/L14(H鎖:VE48HA、L鎖:VE48L14) (antibody, human IgG1, kappa, V domains shown)
VH: QVTLKESGPALVKPTQTLTLTCTFSGFSLSTYGMGVGWIRQPPGKALEWLANIWWNDDKYYNPVLRSRLTISKDTSKNQVVLTMTNMDPVDTATYYCVQVTNPFVFWGQGTLVTVSS
VL: DIVMTQTPLSLPVTPGEPASISCRSSQSLVHIKGNTYLHWYLQKPGQSPQLLIYKVSNRFSGVPDRFSGSGSGTDFTLKISRVEAEDVGVYFCSQSTHVPWTFGGGTKVEIKR
notes: also called 48HA/48L14
As for B8, the binding result in assay [3] was “binds”.

B9: ヒト化抗体VE48抗体(48HH/48L6) (antibody, V domains shown)
VH: QVTLKESGPALVKPTQTLTLTCTFSGFSLSTYGMGVGWIRQPPGKALEWLANIWWEDDKYYNPVLRSRLTISKDTSKNQVVLTMTNMDPVDTATYYCVQVTNPFVFWGQGTLVTVSS
VL: DIVMTQTPLSLPVTPGEPASISCRSSQSLVHINGNTYLHWYLQKPGQSPQLLIYKVSNRFSGVPDRFSGSGSGTDFTLKISRVEAEDVGVYFCSQSTHVPWTFGGGTKVEIKR
notes: The light chain is VE48L6; also called VE48HH/VE48L6
For B9, the binding result in assay [3] is on record as “binds”.

B10: ヒト化抗体VE48抗体(48HI/48L6) (antibody, V domains shown)
VH: QVTLKESGPALVKPTQTLTLTCTFSGFSLSDYGMGVGWIRQPPGKALEWLANIWWNDDKYYNPVLRSRLTISKDTSKNQVVLTMTNMDPVDTATYYCVQVTNPFVFWGQGTLVTVSS
VL: DIVMTQTPLSLPVTPGEPASISCRSSQSLVHINGNTYLHWYLQKPGQSPQLLIYKVSNRFSGVPDRFSGSGSGTDFTLKISRVEAEDVGVYFCSQSTHVPWTFGGGTKVEIKR
notes: The light chain is VE48L6; also called VE48HI/VE48L6
For B10, the binding result in assay [3] was “binds”.

B11: ヒト化抗体VE48抗体(48HJ/48L6) (antibody, V domains shown)
VH: QVTLKESGPALVKPTQTLTLTCTFSGFSLSTYGMGVGWIRQPPGKALEWLANIWWNDDKYYNPVLQDRLTISKDTSKNQVVLTMTNMDPVDTATYYCVQVTNPFVFWGQGTLVTVSS
VL: DIVMTQTPLSLPVTPGEPASISCRSSQSLVHINGNTYLHWYLQKPGQSPQLLIYKVSNRFSGVPDRFSGSGSGTDFTLKISRVEAEDVGVYFCSQSTHVPWTFGGGTKVEIKR
notes: The light chain is VE48L6; also called VE48HJ/VE48L6
In the case of B11, in assay [3], the binding result is reported as “binds”.

B12: ヒト化抗体VE48抗体(48H16/48L6) (antibody, V domains shown)
VH: QVTLKESGPALVKPTQTLTLTCTFSGFSLSDYGMGVGWIRQPPGKALEWLANIWWNDDKYYNPVLRSRLTISKDTSKNQVVLTMTNMDPVDTATYYCVQVTNPFVFWGEGTLVTVSS
VL: DIVMTQTPLSLPVTPGEPASISCRSSQSLVHINGNTYLHWYLQKPGQSPQLLIYKVSNRFSGVPDRFSGSGSGTDFTLKISRVEAEDVGVYFCSQSTHVPWTFGGGTKVEIKR
notes: The light chain is VE48L6; also called VE48H16/VE48L6
As to B12, the binding result in assay [3] was “binds”.
